To fix the notation:
B1: Tyrosine-protein phosphatase non-receptor type 1 (Homo sapiens), P18031 (parent)
chain: MEMEKEFEQIDKSGSWAAIYQDIRHEASDFPCRVAKLPKNKNRNRYRDVSPFDHSRIKLHQEDNDYINASLIKMEEAQRSYILTQGPLPNTCGHFWEMVWEQKSRGVVMLNRVMEKGSLKCAQYWPQKEEKEMIFEDTNLKLTLISEDIKSYYTVRQLELENLTTQETREILHFHYTTWPDFGVPESPASFLNFLFKVRESGSLSPEHGPVVVHCSAGIGRSGTFCLADTCLLLMDKRKDPSSVDIKKVLLEMRKFRMGLIQTADQLRFSYLAVIEGAKFIMGDSSVQDQWKELSHEDLEPPPEHIPPPPRPPKRILEPHNGKCREFFPNHQWVKEETQEDKDCPIKEEKGSPLNAAPYGIESMSQDTEVRSRVVGGSLRGAQAASPAKGEPSLPEKDEDHALSYWKPFLVNMCVATVLTAGAYLCYRFLFNSNT

Variants of B1 are the subject of this experiment. The conditions noted are these: with pgfrb_human PDGFRB.
As to C215S, the “effect of a mutation on the interaction” value was “increasing interaction”.

These data come from IntAct's records for PubMed 9355745.
